Test results taken from patent publication US20160136234A1.

Legend:
Test in all cases: cell-based or functional assay
TSSK2 (h) (human) = molecular target: T1, TSSK2 (h) (human) (UniProt Q96PF2)
T1 sequence (looked up): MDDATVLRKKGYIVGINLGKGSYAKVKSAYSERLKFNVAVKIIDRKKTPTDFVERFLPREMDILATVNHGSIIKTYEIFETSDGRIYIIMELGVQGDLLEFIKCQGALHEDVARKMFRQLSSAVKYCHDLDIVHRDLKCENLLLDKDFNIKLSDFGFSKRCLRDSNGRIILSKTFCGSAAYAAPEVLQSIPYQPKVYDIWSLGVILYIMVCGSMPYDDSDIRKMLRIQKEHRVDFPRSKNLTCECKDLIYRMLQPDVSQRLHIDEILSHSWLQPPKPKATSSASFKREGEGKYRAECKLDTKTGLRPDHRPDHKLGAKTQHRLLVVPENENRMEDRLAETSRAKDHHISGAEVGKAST

Hck (h) (human) = Hck (h) (human) (UniProt P08631)
MSK1 (h) (human) = MSK1 (h) (human) (UniProt O75582)
[1] = molecular target: BDNF/NT-3 growth factors receptor (human) (UniProt Q16620)
Aurora-B (h) (human) = Aurora-B (h) (human) (UniProt Q96GD4)
Sequence of Aurora-B (h) (human) (Q96GD4 whole entry): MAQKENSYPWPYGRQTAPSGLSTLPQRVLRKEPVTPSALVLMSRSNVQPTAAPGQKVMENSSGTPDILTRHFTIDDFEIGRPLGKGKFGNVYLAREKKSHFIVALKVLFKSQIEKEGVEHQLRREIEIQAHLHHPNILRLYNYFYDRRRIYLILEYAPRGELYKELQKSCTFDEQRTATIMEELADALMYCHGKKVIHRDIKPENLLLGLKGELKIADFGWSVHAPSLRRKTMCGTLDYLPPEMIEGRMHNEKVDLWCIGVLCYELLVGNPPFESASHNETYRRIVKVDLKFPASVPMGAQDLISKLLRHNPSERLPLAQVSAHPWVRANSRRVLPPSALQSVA

Mer (h) (human) = molecular target: T2, Mer (h) (human) (UniProt Q12866)
T2 sequence (looked up): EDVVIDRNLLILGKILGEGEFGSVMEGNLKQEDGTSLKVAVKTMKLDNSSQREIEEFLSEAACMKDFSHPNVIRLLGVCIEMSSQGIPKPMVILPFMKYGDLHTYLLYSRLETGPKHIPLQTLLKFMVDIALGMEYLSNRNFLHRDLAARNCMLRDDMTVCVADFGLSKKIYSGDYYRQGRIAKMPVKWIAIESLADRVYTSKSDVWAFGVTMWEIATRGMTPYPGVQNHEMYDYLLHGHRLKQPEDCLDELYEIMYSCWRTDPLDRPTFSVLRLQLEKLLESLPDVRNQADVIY

cSRC (h) (human) = cSRC (h) (human) (UniProt P12931)
LOK (h) (human) = LOK (h) (human) (UniProt O94804)
PKBβ (h) (human) = PKBβ (h) (human) (UniProt P31751)
Sequence of PKBβ (h) (human) (P31751 whole entry): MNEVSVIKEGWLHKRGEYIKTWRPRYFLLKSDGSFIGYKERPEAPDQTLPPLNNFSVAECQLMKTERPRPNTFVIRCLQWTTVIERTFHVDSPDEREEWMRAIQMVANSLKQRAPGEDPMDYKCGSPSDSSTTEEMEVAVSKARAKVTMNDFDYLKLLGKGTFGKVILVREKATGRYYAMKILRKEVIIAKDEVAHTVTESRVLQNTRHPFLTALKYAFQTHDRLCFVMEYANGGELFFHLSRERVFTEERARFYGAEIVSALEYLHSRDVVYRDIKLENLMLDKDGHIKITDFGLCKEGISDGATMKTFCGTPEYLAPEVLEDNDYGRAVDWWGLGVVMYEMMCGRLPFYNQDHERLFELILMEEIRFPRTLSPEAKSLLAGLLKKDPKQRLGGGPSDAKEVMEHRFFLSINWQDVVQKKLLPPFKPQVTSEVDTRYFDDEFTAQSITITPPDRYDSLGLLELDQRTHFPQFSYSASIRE

NEK6 (h) (human) = NEK6 (h) (human) (UniProt Q9HC98)
Rsk2 (h) (human) = Rsk2 (h) (human) (UniProt P51812)
Sequence of Rsk2 (h) (human) (P51812 whole entry): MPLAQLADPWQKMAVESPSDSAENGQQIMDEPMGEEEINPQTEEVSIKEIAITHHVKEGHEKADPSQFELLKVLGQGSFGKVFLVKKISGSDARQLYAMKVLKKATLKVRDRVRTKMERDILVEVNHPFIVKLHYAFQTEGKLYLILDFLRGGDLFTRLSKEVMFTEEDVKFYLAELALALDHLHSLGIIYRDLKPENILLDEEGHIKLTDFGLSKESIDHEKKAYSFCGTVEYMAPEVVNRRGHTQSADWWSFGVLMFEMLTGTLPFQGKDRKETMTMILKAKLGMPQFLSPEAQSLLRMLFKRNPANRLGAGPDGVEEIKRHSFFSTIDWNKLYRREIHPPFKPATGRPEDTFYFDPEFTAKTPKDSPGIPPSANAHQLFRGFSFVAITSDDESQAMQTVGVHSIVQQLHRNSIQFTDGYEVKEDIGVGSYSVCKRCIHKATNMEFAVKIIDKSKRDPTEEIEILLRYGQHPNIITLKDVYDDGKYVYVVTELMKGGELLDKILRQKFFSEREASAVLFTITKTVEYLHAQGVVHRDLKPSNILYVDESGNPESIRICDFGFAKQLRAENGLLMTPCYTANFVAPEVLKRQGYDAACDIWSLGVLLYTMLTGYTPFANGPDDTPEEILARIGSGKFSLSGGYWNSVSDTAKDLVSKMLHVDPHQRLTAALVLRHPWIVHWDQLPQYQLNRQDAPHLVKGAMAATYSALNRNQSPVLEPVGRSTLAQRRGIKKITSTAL

ZAP-70 (h) (human) = ZAP-70 (h) (human) (UniProt P43403)
Sequence of ZAP-70 (h) (human) (P43403 whole entry): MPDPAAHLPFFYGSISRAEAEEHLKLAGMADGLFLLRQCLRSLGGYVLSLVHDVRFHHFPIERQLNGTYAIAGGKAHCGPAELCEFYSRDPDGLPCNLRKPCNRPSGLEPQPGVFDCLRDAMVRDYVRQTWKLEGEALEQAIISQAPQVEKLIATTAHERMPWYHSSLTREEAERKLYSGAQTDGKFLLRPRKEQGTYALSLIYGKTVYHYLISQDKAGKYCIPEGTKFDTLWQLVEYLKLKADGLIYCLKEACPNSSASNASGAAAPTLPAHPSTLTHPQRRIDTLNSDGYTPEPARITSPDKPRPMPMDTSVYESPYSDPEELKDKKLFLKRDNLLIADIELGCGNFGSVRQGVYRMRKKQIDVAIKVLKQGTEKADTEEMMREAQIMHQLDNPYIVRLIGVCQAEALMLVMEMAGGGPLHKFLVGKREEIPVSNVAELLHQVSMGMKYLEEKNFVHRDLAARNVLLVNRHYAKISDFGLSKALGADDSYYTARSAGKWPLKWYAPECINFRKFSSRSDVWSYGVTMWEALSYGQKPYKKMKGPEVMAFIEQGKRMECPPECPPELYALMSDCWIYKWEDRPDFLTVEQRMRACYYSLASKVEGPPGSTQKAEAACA

Lck (h) (human) = Lck (h) (human) (UniProt P06239)
PKCε (h) (human) = PKCε (h) (human) (UniProt Q02156)
Tie2(Y897S) (h) (human) = Tie2(Y897S) (h) (human) (UniProt Q02763)
Sequence of Tie2(Y897S) (h) (human) (Q02763 771-1124 Y897S limits assumed): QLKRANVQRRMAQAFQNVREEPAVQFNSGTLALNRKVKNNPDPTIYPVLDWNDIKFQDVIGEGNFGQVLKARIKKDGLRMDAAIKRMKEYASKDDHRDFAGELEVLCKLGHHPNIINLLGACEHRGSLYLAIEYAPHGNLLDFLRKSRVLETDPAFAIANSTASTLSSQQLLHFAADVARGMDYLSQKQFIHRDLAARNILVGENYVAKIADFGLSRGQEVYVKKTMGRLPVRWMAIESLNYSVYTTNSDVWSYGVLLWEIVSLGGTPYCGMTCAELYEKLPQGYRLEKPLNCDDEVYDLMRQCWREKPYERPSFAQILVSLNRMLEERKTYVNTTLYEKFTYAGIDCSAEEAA

TBK1 (h) (human) = molecular target: T3, TBK1 (h) (human) (UniProt Q9UHD2)
T3 sequence (looked up): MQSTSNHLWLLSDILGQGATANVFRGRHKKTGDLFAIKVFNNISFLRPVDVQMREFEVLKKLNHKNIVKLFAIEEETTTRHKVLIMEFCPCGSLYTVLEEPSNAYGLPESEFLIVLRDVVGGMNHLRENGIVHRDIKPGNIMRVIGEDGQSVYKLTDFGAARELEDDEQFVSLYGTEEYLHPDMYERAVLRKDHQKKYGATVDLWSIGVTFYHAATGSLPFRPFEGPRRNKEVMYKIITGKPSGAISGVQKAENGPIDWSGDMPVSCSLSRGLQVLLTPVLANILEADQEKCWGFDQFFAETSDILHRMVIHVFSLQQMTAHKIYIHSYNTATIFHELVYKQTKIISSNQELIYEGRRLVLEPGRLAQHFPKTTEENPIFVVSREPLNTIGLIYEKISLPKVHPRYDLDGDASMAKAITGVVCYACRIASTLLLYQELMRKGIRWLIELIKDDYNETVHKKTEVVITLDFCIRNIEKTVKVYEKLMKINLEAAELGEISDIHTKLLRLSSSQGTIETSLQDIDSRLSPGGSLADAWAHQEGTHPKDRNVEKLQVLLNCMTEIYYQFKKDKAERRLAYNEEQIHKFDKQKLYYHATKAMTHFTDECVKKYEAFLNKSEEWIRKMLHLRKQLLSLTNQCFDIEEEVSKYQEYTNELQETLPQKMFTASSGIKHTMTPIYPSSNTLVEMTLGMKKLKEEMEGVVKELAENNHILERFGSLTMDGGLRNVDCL

EGFR(L861Q) (h) (human) = EGFR(L861Q) (h) (human) (UniProt P00533)
PAK2 (h) (human) = PAK2 (h) (human) (UniProt Q13177)
Sequence of PAK2 (h) (human) (Q13177 whole entry): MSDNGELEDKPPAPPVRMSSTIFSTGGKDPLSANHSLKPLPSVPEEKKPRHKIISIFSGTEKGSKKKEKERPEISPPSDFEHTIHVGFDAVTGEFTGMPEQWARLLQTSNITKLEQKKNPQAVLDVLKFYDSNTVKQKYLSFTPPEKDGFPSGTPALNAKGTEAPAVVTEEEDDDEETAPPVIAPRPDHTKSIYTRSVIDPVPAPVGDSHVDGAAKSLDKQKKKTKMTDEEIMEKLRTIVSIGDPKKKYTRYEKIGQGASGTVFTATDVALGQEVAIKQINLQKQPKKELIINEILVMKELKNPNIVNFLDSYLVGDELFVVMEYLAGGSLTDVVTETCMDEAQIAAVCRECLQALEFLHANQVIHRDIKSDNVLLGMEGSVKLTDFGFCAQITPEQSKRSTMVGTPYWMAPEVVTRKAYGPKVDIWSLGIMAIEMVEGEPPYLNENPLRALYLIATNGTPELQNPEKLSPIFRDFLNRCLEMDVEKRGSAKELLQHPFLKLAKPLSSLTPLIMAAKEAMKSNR

MST2 (h) (human) = molecular target: T4, MST2 (h) (human) (UniProt Q13188)
T4 sequence (looked up): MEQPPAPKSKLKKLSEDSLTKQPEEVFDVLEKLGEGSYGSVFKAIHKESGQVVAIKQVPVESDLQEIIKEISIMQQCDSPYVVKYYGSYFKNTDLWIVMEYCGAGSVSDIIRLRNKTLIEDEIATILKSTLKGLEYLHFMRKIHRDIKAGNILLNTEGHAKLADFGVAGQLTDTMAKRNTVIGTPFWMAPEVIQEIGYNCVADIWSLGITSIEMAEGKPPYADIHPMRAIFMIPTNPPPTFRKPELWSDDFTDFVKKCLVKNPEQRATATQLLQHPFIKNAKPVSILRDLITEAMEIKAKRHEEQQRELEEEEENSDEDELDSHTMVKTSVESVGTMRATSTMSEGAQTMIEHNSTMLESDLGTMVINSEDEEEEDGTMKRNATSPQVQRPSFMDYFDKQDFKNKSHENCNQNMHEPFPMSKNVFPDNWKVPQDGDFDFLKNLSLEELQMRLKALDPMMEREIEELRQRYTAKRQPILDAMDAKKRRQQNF

% activity at 100 µM (TSSK2 (h) (human)): 98%
% activity at 100 µM (Hck (h) (human)): 72%
% activity at 100 µM (MSK1 (h) (human)): 32%
% activity at 100 µM [1]: 5%
% activity at 100 µM (Aurora-B (h) (human)): 128%
% activity at 100 µM (Mer (h) (human)): 52%
% activity at 100 µM (cSRC (h) (human)): 26%
% activity at 100 µM (LOK (h) (human)): 37%
% activity at 100 µM (PKBβ (h) (human)): 84%
% activity at 100 µM (NEK6 (h) (human)): 82%
% activity at 100 µM (Rsk2 (h) (human)): 51%
% activity at 100 µM (ZAP-70 (h) (human)): 75%
% activity at 100 µM (Lck (h) (human)): -2%
% activity at 100 µM (PKCε (h) (human)): 79%
% activity at 100 µM (Tie2(Y897S) (h) (human)): 83%
% activity at 100 µM (TBK1 (h) (human)): 37%
% activity at 100 µM (EGFR(L861Q) (h) (human)): 25%
% activity at 100 µM (PAK2 (h) (human)): 65%
% activity at 100 µM (MST2 (h) (human)): 19%
Substance: MMI-0300 (peptide)
